For test [1], the system named is Aminopeptidase + Carboxypeptidase Y. Nature of the test: Reactivity of peptidase formulations against synthetic peptides: aminopeptidase A + carboxypeptidase Y. Type of test: biochemical. The following applies: 0.01 μg/ml, peptide 10 μg/ml, phosphate buffer pH 5.3, 37° C. 3 hours, HPLC. The protocol: (§1) Peptides shown in Table 1 were chemically synthesized. […] All of these synthetic peptides were synthesized with the automatic peptide synthesizing machine PPSM-8 (manufactured by Shimadzu Corporation).
(§2) Each synthetic peptide was dissolved at the concentration of 10 μg/ml in 100 mM phosphate buffer pH 5.3 as to Experiments 1-1 to 1-4, 1-10 to 1-12, 1-16 and 1-21, or in 50 mM Tris-HCl buffer pH 8.0 as to other Experiments. Each of various peptidase formulations shown in Table 1 was then added so that the concentration thereof became 0.01 μg/ml, and the reaction was performed at 37° C. for 3 hours. After the enzyme reaction, the mixture was analyzed by the reverse phase high performance liquid chromatography (HPLC). […] The fractions of the detected peak were collected and amino acid sequence analysis was performed by the automatic peptide analyzer model PPSQ-10 (manufactured by Shimadzu Corporation). […]

Test [2] concerns Leucine aminopeptidase, cytosol + Carboxypeptidase Y. Nature of the test: Reactivity of peptidase formulations against synthetic peptides: LC + carboxypeptidase Y. The following applies: phosphate buffer pH 5.3, 37° C. 3 hours, HPLC. The class given is biochemical. As for the experimental part:
as §1, §2

Test [3] concerns Leucine aminopeptidase, microsomal + Carboxypeptidase Y. Nature of the test: Reactivity of peptidase formulations against synthetic peptides: LM + carboxypeptidase Y. The class given is biochemical. The following applies: phosphate buffer pH 5.3, 37° C. 3 hours, HPLC. The protocol:
as §1, §2

The test system of test [4] is Aminipeptidase I + Carboxypeptidase Y. In words: Reactivity of peptidase formulations against synthetic peptides: aminopeptidase I + carboxypeptidase Y. The class given is biochemical. The following applies: phosphate buffer pH 5.3, 37° C. 3 hours, HPLC. As for the experimental part: as §1, §2
The subject of another test is Aminopeptidase. In words: Reactivity of peptidase formulations against synthetic peptides: aminopeptidase A alone. The class given is biochemical. The following applies: no carboxypeptidase, Tris-HCl pH 8.0, 37° C. 3 hours, HPLC. As for the experimental part:
as §1, §2

Test [5] addresses T1, Leucine aminopeptidase, microsomal (Sus scrofa, UniProt P15145).
T1 construct: purchased Sigma Chemical Co; host or cells: porcine kidney
T1 sequence (P15145 1-963): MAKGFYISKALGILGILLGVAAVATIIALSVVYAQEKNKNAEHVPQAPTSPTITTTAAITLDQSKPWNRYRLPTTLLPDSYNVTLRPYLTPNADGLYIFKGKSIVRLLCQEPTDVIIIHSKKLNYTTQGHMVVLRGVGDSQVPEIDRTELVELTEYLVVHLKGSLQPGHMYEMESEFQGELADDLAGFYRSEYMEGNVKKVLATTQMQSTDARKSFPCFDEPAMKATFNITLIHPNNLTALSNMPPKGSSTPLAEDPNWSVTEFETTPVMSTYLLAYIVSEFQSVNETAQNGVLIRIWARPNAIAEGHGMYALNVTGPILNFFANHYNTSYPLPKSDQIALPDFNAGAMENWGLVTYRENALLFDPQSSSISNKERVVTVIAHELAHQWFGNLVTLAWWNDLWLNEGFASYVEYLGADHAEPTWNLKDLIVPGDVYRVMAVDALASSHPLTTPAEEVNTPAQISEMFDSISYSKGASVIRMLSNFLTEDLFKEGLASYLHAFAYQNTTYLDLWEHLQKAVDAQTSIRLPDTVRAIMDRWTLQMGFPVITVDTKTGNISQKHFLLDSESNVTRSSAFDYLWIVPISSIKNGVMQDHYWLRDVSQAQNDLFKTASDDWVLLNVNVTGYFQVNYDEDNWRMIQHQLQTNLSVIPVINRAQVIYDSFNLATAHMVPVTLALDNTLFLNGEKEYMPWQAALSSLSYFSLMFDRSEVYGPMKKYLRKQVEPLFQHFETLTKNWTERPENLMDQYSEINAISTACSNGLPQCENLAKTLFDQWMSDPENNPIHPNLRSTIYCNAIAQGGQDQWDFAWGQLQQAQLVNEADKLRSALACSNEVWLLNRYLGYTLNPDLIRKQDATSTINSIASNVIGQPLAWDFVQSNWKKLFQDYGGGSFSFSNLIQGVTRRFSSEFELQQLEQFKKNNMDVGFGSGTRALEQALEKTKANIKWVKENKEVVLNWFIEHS
Nature of the test: Reactivity of peptidase formulations against synthetic peptides: LM alone. The following applies: no carboxypeptidase, Tris-HCl pH 8.0, 37° C. 3 hours, HPLC. The class given is biochemical, porcine. The protocol:
as §1, §2

The target of a further test is T2, Aminipeptidase I (Streptomyces griseus subsp. griseus, UniProt P80561).
T2 construct: purchased Sigma Chemical Co
T2 sequence (P80561 46-329): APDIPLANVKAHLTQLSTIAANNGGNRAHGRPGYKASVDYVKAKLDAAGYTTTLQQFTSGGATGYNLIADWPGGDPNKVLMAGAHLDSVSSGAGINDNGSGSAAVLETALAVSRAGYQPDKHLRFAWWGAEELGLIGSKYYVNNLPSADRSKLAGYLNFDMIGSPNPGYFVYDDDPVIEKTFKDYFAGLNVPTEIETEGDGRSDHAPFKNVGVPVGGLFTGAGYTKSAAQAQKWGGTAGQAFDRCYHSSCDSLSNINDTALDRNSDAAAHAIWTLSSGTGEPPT
Nature of the test: Reactivity of peptidase formulations against synthetic peptides: aminopeptidase I alone. Type of test: biochemical. The following applies: no carboxypeptidase, Tris-HCl pH 8.0, 37° C. 3 hours, HPLC. As for the experimental part:
as §1, §2

Test [6] concerns the target T3, Leucine aminopeptidase, cytosol (Sus scrofa, UniProt P28839).
T3 construct: purchased Sigma Chemical Co; host or cells: porcine kidney
T3 sequence (P28839 1-519): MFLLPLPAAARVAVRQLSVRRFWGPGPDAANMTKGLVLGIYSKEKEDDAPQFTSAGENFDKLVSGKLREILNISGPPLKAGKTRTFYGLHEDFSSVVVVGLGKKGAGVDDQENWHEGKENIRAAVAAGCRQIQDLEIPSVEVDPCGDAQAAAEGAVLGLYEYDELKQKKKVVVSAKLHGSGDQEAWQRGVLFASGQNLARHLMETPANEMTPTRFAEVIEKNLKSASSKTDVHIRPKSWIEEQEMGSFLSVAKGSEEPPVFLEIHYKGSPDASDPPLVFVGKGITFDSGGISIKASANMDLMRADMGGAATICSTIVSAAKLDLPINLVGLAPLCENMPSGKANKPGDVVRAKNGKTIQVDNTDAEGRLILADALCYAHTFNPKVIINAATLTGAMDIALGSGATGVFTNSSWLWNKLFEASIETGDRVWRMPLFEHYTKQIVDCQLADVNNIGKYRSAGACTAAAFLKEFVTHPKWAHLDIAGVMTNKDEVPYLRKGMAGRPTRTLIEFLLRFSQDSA
Nature of the test: Reactivity of peptidase formulations against synthetic peptides: LC alone. The class given is biochemical, porcine. The settings on record: no carboxypeptidase, Tris-HCl pH 8.0, 37° C. 3 hours, HPLC. The protocol: as §1, §2

Test [7] has as its system synthetic peptide consisting of the 28 amino acids (SEQ ID NO: 28). In words: Two step reaction of proteinase and fraction 4 on the 28 amino acid synthetic peptide. The class given is biochemical. The following applies: proteinase 0.1 μg/ml on 28-mer 10 μg/ml, pH 6.1, 37° C. 5 hours, heat inactivation, then fraction 4, HPLC. As for the experimental part: To 10 μg/ml of the synthetic peptide consisting of the 28 amino acids that is the same as the one used in Experiment 2 (in 100 mM phosphate buffer pH 6.1), each of the commercially available proteinase enzymes for food processing shown in Table 4 was added at 0.1 μg/ml. The mixture was reacted at 37° C. for 5 hours. After finishing the reaction, the reacted liquid was heated at 100° C. for 5 minutes for inactivating the proteinase, and then reacted with the fraction 4 obtained in Experiment 4.

In test [8] the test system is synthetic peptide consisting of 28 amino acids (SEQ ID NO: 28). In words: Production of the intermediate peptides with proteinase from the 28 amino acid synthetic peptide. The following applies: enzyme 0.1 μg/ml, 28-mer 10 μg/ml, phosphate buffer pH 6.1, 37° C. 5 hours; HPLC and sequence analysis. Type of test: biochemical. From the text: A peptide consisting of 28 amino acids and having a sequence identical with a part of casein sequence and containing the sequence Ile-Pro-Pro and Val-Pro-Pro therein was chemically synthesized by the automatic peptide synthesizer model […]. The sequence of the peptide synthesized is as follows: […](SEQ ID NO: 28)
This synthetic peptide was reacted with various commercially available proteinase formulations, seeking for a proteinase capable of producing a peptide containing the sequence Ile-Pro-Pro or Val-Pro-Pro therein but containing no Pro other than these sequences.
That is, 0.1 μg/ml of each enzyme was added to 10 μg/ml of the synthetic peptide (in 100 mM phosphate buffer pH 6.1). The mixture was reacted at 37° C. for 5 hours to obtain a reacted liquid. The reacted liquid was analyzed by the reverse phase high performance liquid chromatography (HPLC). The fractions of the detected peptide peaks were collected and amino acid sequence analysis was performed by the automatic peptide analyzer model PPSQ-10.

As for Asn Ile Pro Pro Leu (NIPPL), the “Existence of IPP or VPP peaks” value in test [1], in test [2], in test [3] and in [4] was “IPP” throughout.
Take Val Val Pro Pro (VVPP): the “Existence of IPP or VPP peaks” value (with Aminopeptidase; in test [5]; in the test with Aminipeptidase I; in test [6]) was “VPP” each time.

B1: Papain: proteinase, Papaya Latex, Sigma Chemical Co. (protein, UniProt P00784 134-345, looked up)
Papain: IPEYVDWRQKGAVTPVKNQGSCGSCWAFSAVVTIEGIIKIRTGNLNEYSEQELLDCDRRSYGCNGGYPWSALQLVAQYGIHYRNTYPYEGVQRYCRSREKGPYAAKTDGVRQVQPYNEGALLYSIANQPVSVVLEAAGKDFQLYRGGIFVGPCGNKVDHAVAAVGYGPNYILIKNSWGTGWGENGYIRIKRGTGNSYGVCGLYTSSFYPVKN
With B1, the “Production of the tripeptides Ile-Pro-Pro and Val-Pro-Pro” value in [7] is “Yes”; in test [7] (listed as papain), “can produce the tripeptides Ile-Pro-Pro and Val-Pro-Pro”. Besides, in test [8], the “Peptides produced in the reaction mixture” value was “a peptide Val-Pro-Pro-Phe-Leu as the peptide containing the sequence Val-Pro-Pro, and peptides Asn-Ile-Pro-Pro-Leu-Thr and Ile-Pro-Pro-Leu-Thr”.

These data come from US6994987B1, “Process for producing tripeptides” (Calpis Co., Ltd., priority 1999, dated 2006).
